Measurements published in patent US20230272104A1 (LEGEND BIOTECH IRELAND, published 2023).
One block for each binder: values may come before it.

How the values were obtained:
[1] = biological target: T1, human CD20 (membrane spanning 4-domains A1, MS4A1) on cells (human, UniProt P11836 1-297); experiment: flow cytometry, mAb titrated on K562-CD20 cells, PE anti-human IgG1 Fc detection
T1 construct: whole, on cells; Target cells used: Raji, K562-CD20, CHO-CD20, Daudi, RPMI-8226 (very low CD20); also called CD20 receptor; CD20 antigen
T1 sequence (looked up): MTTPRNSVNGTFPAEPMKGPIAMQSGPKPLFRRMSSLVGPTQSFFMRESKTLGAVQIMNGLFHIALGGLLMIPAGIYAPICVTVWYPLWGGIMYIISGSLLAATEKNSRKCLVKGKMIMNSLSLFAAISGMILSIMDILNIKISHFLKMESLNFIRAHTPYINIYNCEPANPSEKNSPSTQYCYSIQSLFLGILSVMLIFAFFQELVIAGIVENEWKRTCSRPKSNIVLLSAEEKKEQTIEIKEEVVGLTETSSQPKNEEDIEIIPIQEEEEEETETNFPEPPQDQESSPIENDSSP
From the text: Each of three exemplary of anti-CD20 VHH sequences (clone ID: VHH-273, VHH-466 and VHH-496) with human IgG1 Fc fragment sequence (SEQ ID NO: 159) were cloned into a mammalian expression vector—pcDNA3.4, to facilitate the recombinant protein expression. The DNA codons were further optimized for optimal expression in mammalian host cell—Expi293F. The antibodies were harvested from the supernatant of cell culture, one-step purified by MabSelect SuRe LX and sterilized via a 0.2 μm filter. The purified antibody concentrations were determined by A280 and reached 2-6 mg/mL with ˜90% purity. Anti-CD20 scFv-huIgG1Fc mAb with amino acid sequence of Rituximab (C2B8) scFv shown in SEQ ID NO: 158 and anti-CD20 Fab-huIgG1Fc mAb with amino acid sequences of Leul6 VH-CH1 and VL-CL shown in SEQ ID NO: 163 and SEQ ID NO: 164 were used as positive controls for the cell surface binding assay. CD20 positive cell lines—Raji, K562-CD20 and negative cell line—K562 were re-suspended in complete culture medium, cells concentration was diluted to 1×10⁶ cells/mL and the staining was performed in 2×10⁵ cells per well. The mAbs were serially diluted from maximal concentration of 2000 nM (3-fold reduction, 12 pts) and added according to the experimental plan and protocol. […] The FACS data was analyzed by Novoexpress software, and the MFI (median fluorescent intensity) was analyzed by GraphPad PRISM version 6.0.

[2] = biological target: T1, human CD20 (membrane spanning 4-domains …); experiment: flow cytometry, mAb titrated on Raji cells, PE anti-human IgG1 Fc detection
From the text: Each of three exemplary of anti-CD20 VHH sequences (clone ID: VHH-273, VHH-466 and VHH-496) with human IgG1 Fc fragment sequence (SEQ ID NO: 159) were cloned into a mammalian expression vector—pcDNA3.4, to facilitate the recombinant protein expression. The DNA codons were further optimized for optimal expression in mammalian host cell—Expi293F. The antibodies were harvested from the supernatant of cell culture, one-step purified by MabSelect SuRe LX and sterilized via a 0.2 μm filter. The purified antibody concentrations were determined by A280 and reached 2-6 mg/mL with ˜90% purity. Anti-CD20 scFv-huIgG1Fc mAb with amino acid sequence of Rituximab (C2B8) scFv shown in SEQ ID NO: 158 and anti-CD20 Fab-huIgG1Fc mAb with amino acid sequences of Leul6 VH-CH1 and VL-CL shown in SEQ ID NO: 163 and SEQ ID NO: 164 were used as positive controls for the cell surface binding assay. CD20 positive cell lines—Raji, K562-CD20 and negative cell line—K562 were re-suspended in complete culture medium, cells concentration was diluted to 1×10⁶ cells/mL and the staining was performed in 2×10⁵ cells per well. The mAbs were serially diluted from maximal concentration of 2000 nM (3-fold reduction, 12 pts) and added according to the experimental plan and protocol. The mAbs and cells were co-incubated for 1 hour at 4° C. Then, the cells were washed with […] of DPBS+0.5% FBS and spun at 300 g for 5 mins, 4° C. The cells were stained with the detection antibody—PE-conjugated mouse anti-human IgG1 Fc (BioLegend, Cat. #409304, 1:100) for 40 mins at 4° C. The cells were then washed again and re-suspended with 200 μL of DPBS+0.5% FBS for flow cytometric analysis on a NovoCyte Flow Cytometer (ACEA Biosciences). The FACS data was analyzed by Novoexpress software, and the MFI (median fluorescent intensity) was analyzed by GraphPad PRISM version 6.0.

- EC50 [1]: 41.1 nM
- EC50 [2]: 75.3 nM
B1: Anti-CD20 scFv-huIgG1Fc mAb (Fc fusion)
chain: QIVLSQSPAILSASPGEKVTMTCRASSSVSYIHWFQQKPGSSPKPWIYATSNLASGVPVRFSGSGSGTSYSLTISRVEAEDAATYYCQQWTSNPPTFGGGTKLEIKGGGGSGGGGSGGGGSQVQLQQPGAELVKPGASVKMSCKASGYTFTSYNMHWVKQTPGRGLEWIGAIYPGNGDTSYNQKFKGKATLTADKSSSTAYMQLSSLTSEDSAVYYCARSTYYGGDWYFNVWGAGTTVTVSA
notes: also called Rituximab (C2B8) scFv-huIgG1Fc; not shown: human IgG1 Fc by the name

- EC50 [2]: 13.5 nM
B2: Anti-CD20 Fab-huIgG1Fc mAb (antibody, V domains shown)
VH: EVQLQQSGAELVKPGASVKMSCKASGYTFTSYNMHWVKQTPGQGLEWIGAIYPGNGDTSYNQKFKGKATLTADKSSSTAYMQLSSLTSEDSADYYCARSNYYGSSYWFFDVWGAGTTVTVSS
VL: DIVLTQSPAILSASPGEKVTMTCRASSSVNYMDWYQKKPGSSPKPWIYATSNLASGVPARFSGSGSGTSYSLTISRVEAEDAATYYCQQWSFNPPTFGGGTKLEIKR
notes: also called Leul6 (Leu16) Fab-huIgG1Fc; not shown: human IgG1 Fc by the name

- EC50 [1]: 6.24 nM
- EC50 [2]: 11.1 nM
B3: VHH-440-huIgG1Fc mAb (Fc fusion)
chain: QVHLMESGGGSVQAGGSLRLSCQASAYIRVFYLMGWFRQAPGKEREEVARVTADGFTNHAASVKGRFTISKDNAKNTLYLQMDSMKSEDTAVYYCAAGRTWNSGFEYWGQGTQVTVSS
notes: not shown: human IgG1 Fc by the name
